Assay results published in patent publication US20230181719A1, “NGR CONJUGATES AND USES THEREOF” (OSPEDALE SAN RAFFAELE S.R.L., priority 2020, published 2023).
Read-outs that look alike come from different tables or passages of the source.

Legend:
[1] = tested on: endothelial EA.hy926 cells; assay: EA.hy926 endothelial cell adhesion assay on protein-coated microtiterplates; assay type: cell-based
Procedure: FIG. 12. […] A) Adhesion of endothelial EA.hy926 cells to 96-wells microtiterplates coated with different amounts of murine TNF, NGR-TNF and S-NGR-TNF in 150 mM sodium chloride, 50 mM sodium phosphate buffer, pH 7.4 (PBS) (16 h). Each well was blocked with 2% BSA in PBS containing calcium chloride and magnesium chloride (DPBS, 30 min), seeded with 40.000 endothelial EA.hy926 cells in DPBS supplemented with 0.1% BSA (DPBS-B), and left to incubate for 2 h at 37° C., 5% CO2. After washing with DMEM-B, adherent cells were stained with crystal violet and quantified by spectrophotometric measurements at 570 nm. B) Microtiterplates pre-coated with 1 µg/ml of murine NGR-TNF or S-NGR-TNF in PBS (for 16 h) were incubated 0.1 M ammonium bicarbonate buffer, pH 8.5 (Ambic) at 37° C. for the indicated time to promote NGR deamidation. EA.hy926 cell adhesion assay was then performed as described above.
This behavior likely reflects a further improvement in the CNGRCG (SEQ ID NO: 1) stability when fused to TNF.

[2] = tested on: RMA lymphoma; assay type: in vivo, mice
Procedure: FIG. 15. […] C57BL/6 mice (6-7 weeks old, weighing 18-20 g) were challenged with subcutaneous injection in the left flank of 7×10^4 RMA cells. Mice bearing RMA lymphomas (6 per group) were treated 10-11 days (after tumor implantation with 100 pg of murine NGR-TNF or S-NGR-TNF (i.p.). Two hours later, the mice were injected with the indicated dose of melphalan (i.p.). All proteins were diluted with 0.9% sodium chloride, containing 100 µg/ml endotoxin-free human albumin. Tumor growth was monitored daily by measuring the tumors with calipers. A-B) Tumor volume change of two independent experiments are shown (mean±SE). […] C) Tumor bearing-animals were treated at day 10 after tumor implantation as indicated above using the indicated dose of S-NGR-TNF and the generic preparation of melphalan (Melphalan-Tillomed, from Tillomed Italia). RMA tumor weight at day 20 are shown (mean±SE). *, P<0.05, **P<0.01 by unpaired t test analysis with the GraphPad Prism software.
Effect of melphalan alone or in combination with low-dose murine S-NGR-TNF on the body weight and tumor growth of RMA-T lymphoma-bearing mice. Six tumor-bearing mice were injected with the indicated doses of S-NGR-TNF (i.p) and, two hours later, with the generic preparation of melphalan (Melphalan-Tillomed) (i.p.).
Finally, to assess whether low-dose S-NGR-TNF can exert synergistic effects with chemotherapy, as previously observed for NGR-TNF, inventors performed in vivo experiments with S-NGR-TNF and NGR-TNF in combination with melphalan, a chemotherapeutic drug, using the murine RMA lymphoma model (FIG. 15).

[3] = tested on: WEHI-164 fibrosarcoma; assay: Low-dose treatment in subcutaneous WEHI-164 fibrosarcoma murine model; assay type: in vivo
Procedure: FIG. 14. […] Balb/c mice (6-7 weeks old, weighing 18-20 g) were injected, s.c., with 1.5×10^6 WEHI-164 cells in the left flank and treated 5 days after tumor implantation (i.p.) with 25 or 50 pg of murine NGR-TNF or S-NGR-TNF in 0.9% sodium chloride, containing 100 µg/ml endotoxin-free human serum albumin (arrows). A) Tumor volumes after treatment (mean±SE, 6 mice per group). B) Tumor weight at day 15 (cumulative data of the two groups treated with 25 and 50 pg of drugs). *, P<0.05, **P<0.01 by unpaired t test of the area under the curve for each tumor (GraphPad Prism software).
To assess whether the addition of the Ser residue to NGR-TNF might affect its anti-tumor activity at low dose, inventors then analyzed the therapeutic activity of NGR-TNF and S-NGR-TNF (25 or 50 pg, i.p.) using the subcutaneous WEHI-164 fibrosarcoma murine model.

[4] = tested on: L-M cells; assay: LM-cells cytolytic assay (MTT); assay type: cell-based; conditions: actinomycin D, 20 h, murine proteins
From the text: FIG. 8. Biochemical and biological characterization of murine S-NGR-TNF and NGR-TNF. A) SDS-PAGE under reducing (βMe +) and non-reducing conditions (βMe -) of murine S-NGR-TNF, NGR-TNF and TNF. Arrows: bands corresponding to monomeric subunits (mon) and reducible dimers (dim). B) Representative mass spectra of murine NGR-TNF, TNF and S-NGR-TNF as determined by a Q Exactive HF mass spectrometer. Expected average masses are shown. C) Cytotoxic activity of TNF, NGR-TNF and S-NGR-TNF against L-M cells. L-M cells were incubated in DMEM medium supplemented with 2 mM glutamine, 100 U/ml penicillin, 100 µg/ml streptomycin, 0.25 µg/ml amphotericin-B, 10% fetal bovine serum, 2 µg/ml actinomycin D and TNF, NGR-TNF or S-NGR-TNF at the indicated doses (20 h at 37° C., 5% CO2). Cell viability was quantified by standard 3-(4,5-dimethylthiazol-2-yl)-2,5-diphenyltetrazolium bromide (MTT) assay. D) Binding of TNF, NGR-TNF and S-NGR-TNF to sTNF-R1 (Etanercept). Microtiterplates were precoated with or without the indicated amount of sTNF-R1 (for 16 h), washed with PBS, blocked with PBS containing 3% milk, 1% BSA (binding buffer, 1 h) and incubated with the indicated amounts of TNF, NGR-TNF or S-NGR-TNF diluted in binding buffer (for 1.5 h). The binding of each protein to sTNF-R1 was then detected using a polyclonal anti-murine TNF (IP301, 5 µg/ml in binding buffer, 1 h) followed by a polyclonal goat anti-rabbit antibody conjugated with horseradish peroxidase (1:1000 in binding buffer, 1 h) and o-phenylendiammine as chromogenic substrate.
To assess whether the addition of a serine residue to NGR-TNF affects its capability to recognize the TNF receptors and, consequently, its biological activity, inventors then analyzed the cytotoxic activity of TNF, NGR-TNF and S-NGR-TNF in the LM-cells cytolytic assay.

[5] = tested on: GL261 glioblastoma
Procedure: Mice bearing GL21-Luc2 glioblastomas (9-10 per group) were treated at day 7, 14 and 21 after tumor implantation with the S-NGR-mTNF (5 ng/kg, about 100 pg/mouse, i.p.). Two hours later, mice were injected with the indicated dose of doxorubicin (doxo, i.p.). […] Tumor growth was monitored by measuring the tumor-associated bioluminescence at day 7, 11, 14, 18, 21, and 28 after the administration of luciferin.
Bioluminescent murine glioma GL21-Luc2 cells, engineered to stably express the firefly luciferase, were orthotopically implanted in C57BL/6J mice (9 weeks-old) into the right striatum (2.5x10^4 cells/mouse). Pharmacological treatments started on the 7 days after tumor cell implantation. Mice were injected, i.p., with 5 ng/Kg dose of S-NGR-TNF (about 100 pg/mice, diluted in 0.9% sodium chloride solution containing 100 µg/ml of HSA), or in combination with doxorubicin (5 mg/Kg) administered 2 h later. Tumor growth was monitored by non-invasive bioluminescence imaging using a PhotonImager RT system (Biospace Lab, France) after luciferase substrate administration (i.p.).
The antitumor activity of S-NGR-mTNF was then investigated in combination of doxorubicin (doxo), a chemotherapeutic drug, in the GL261-luc2 model. To this aims, tumor bearing-animal were treated at day 7, 14 and 21 post tumor implantation with S-NGR-mTNF (5 ng/kg, i.p.) and 2 h later with doxo (i.p., 5 mg/kg, corresponding to about 100 µg/mouse). In parallel, control mice were treated with vehicle or doxo alone.

[6] = tested on: GL261 glioblastoma; assay type: in vivo, mice; conditions: i.p., 5 ng/kg at day 7, 19 and 31
From the text: Effect of S-NGR-mTNF on the […] glioblastoma growth and animal body weight. C57BL/6J mice (9 weeks old, weighing 18-21 g) were intracranially implanted with 2.5 × 10^4 GL21-Luc2 cells.
C) Kaplan-Maier curves of vehicle and S-NGR-mTNF.
Inventors next investigated the antitumor activity of murine S-NGR-TNF (S-NGR-mTNF) in the GL261 glioblastoma model, one of the most frequently used syngeneic murine glioma models. To this aim, inventors have exploited GL261 cells genetically engineered to express luciferase (GL261-luc2). This allows in vivo visualization of tumors growth and response to treatment within the brain by bioluminescence imaging.

[7] = tested on: RMA-T lymphoma-bearing mice; assay type: in vivo; conditions: high dose 2 µg and 6 µg
Procedure: FIG. 13. […] A) Effect of high-dose murine S-NGR-TNF or NGR-TNF on the body weight and tumor volume of RMA-T lymphoma- bearing mice. Six C57BL/6 mice (6-7 weeks old, weighing 18-20 g) were challenged with subcutaneous injection in the left flank of 5 ×10^4 RMA-T cells. Mice bearing RMA lymphomas (6 per group) were treated at day 11 after tumor implantation with 2 µg and 6 µg of murine NGR-TNF or S-NGR-TNF in 0.9% sodium chloride, containing 100 µg/ml endotoxin-free human albumin (i.p.) as indicated (arrows). Animal weights and tumor growth were monitored as indicated. B) Effect of melphalan alone or in combination with low-dose murine S-NGR-TNF on the body weight of RMA-T lymphoma-bearing mice.
To assess the impact of the additional serine residue added to the N-terminus of NGR-TNF on its toxicity and anti-tumor activity inventors injected high-dose NGR-TNF or S-NGR-TNF to mice bearing subcutaneous RMA-T lymphomas (n=6) and evaluated the loss of animal weight. […] Three days later the mice regained the original weight.

B1: S-NGR-TNF: Murine SCNGRCG-TNF fusion protein: serine residue added to the N-terminus of NGR-TNF (SEQ ID NO: 26) (protein)
chain: SCNGRCGLRSSSQNSSDKPVAHVVANHQVEEQLEWLSQRANALLANGMDLKDNQLVVPADGLYLVYSQVLFKGQGCPDYVLLTHTVSRFAISYQEKVNLLSAVKSPCPKDTPEGAELKPWYEPIYLGGVFQLEKGDQLSAEVNLPKYLDFAESGQVYFGVIAL
EA.hy926 cell adhesion to coated plates ([1]; plates coated in PBS, no forced deamidation): not
EA.hy926 cell adhesion after forced deamidation ([1]; plates treated with 0.1 M ammonium bicarbonate buffer, pH 8.5, compared to NGR-TNF): a longer time of incubation under deamidation conditions was necessary
efficacy of melphalan in combination ([2]; 100 pg i.p., melphalan two hours later): could enhance the efficacy of melphalan
antitumor activity of combination ([2]; S-NGR-TNF 100 pg with melphalan 50 µg): significant increase of antitumor activity
antitumor effect compared to NGR-TNF ([2]; in combination with melphalan): slightly stronger antitumor effect
anti-tumor effects compared to 25 pg of NGR-TNF ([3]; 25 pg): slightly stronger anti-tumor effects
toxicity ([3]; 25 or 50 pg, i.p.): No evidence of toxicity
tumor growth ([3]; 25 or 50 pg, i.p.): delayed tumor growth to similar extent
EC50 cytotoxic activity [4]: very similar
mice with delayed tumor growth ([5]; S-NGR-mTNF 5 ng/kg i.p. and 2 h later doxo 5 mg/kg, day 7, 14, 21): 55%
toxicity of doxo, judged from loss of animal weight ([5]; S-NGR-mTNF 5 ng/kg with doxo 5 mg/kg): did not exacerbate the toxicity of doxo
tumor growth ([5]; S-NGR-mTNF 5 ng/kg with doxo 5 mg/kg (combination therapy)): could significantly delay tumor growth
gain of body weight of cured animals [6]: about +15%
tumor growth [6]: significantly delayed tumor growth
antitumor effects compared to NGR-TNF [7]: slightly stronger antitumor effects
